Assay results from paper PMC10424212.

Conditions: ubiquitination at K57

| Substance | degradation_or_half_life | enzymatic_activity |
| --- | --- | --- |
| ALKBH5: K57R | increases | – |
| ALKBH5: K57R (purified FLAG-tagged protein, in vitro demethylation assay) | – | no change |
